{"source": "paper PMC10661027", "about": "“Tuning Plant Promoters Using a Simple Split Luciferase Method to Assess Transcription Factor-DNA Interactions”", "binders": {"B1": {"name": "CaMV35s as1 (dsDNA)", "DNA 1": "ATGAAGACGCTGGGTTTACATGGGAATGGCTGACGTAAGGGATGACGCACATGCTTCTGTTCTAACAGGCTAGGATATAA", "DNA 2": "TTATATCCTAGCCTGTTAGAACAGAAGCATGTGCGTCATCCCTTACGTCAGCCATTCCCATGTAAACCCAGCGTCTTCAT"}, "B2": {"name": "CaMV35s as1 80 bp Cy5 EMSA probe (dsDNA)", "DNA 1": "B1 DNA 1", "DNA 2": "B1 DNA 2"}, "B3": {"name": "TFBS_02 (dsDNA)", "DNA 1": "TAGCGAAGTACGATCCCGGACCGCTACATTCCAAATAGTCTGACGTAAGCAATGACAAAACTCACCTACATGGCCATCACGCAGTA", "DNA 2": "TACTGCGTGATGGCCATGTAGGTGAGTTTTGTCATTGCTTACGTCAGACTATTTGGAATGTAGCGGTCCGGGATCGTACTTCGCTA"}}, "key": {"AtTGA1:HiBiT [1]": {"molecular_target": "T1, AtTGA1:HiBiT (Arabidopsis thaliana, UniProt Q39237 1-368)", "T1 sequence": "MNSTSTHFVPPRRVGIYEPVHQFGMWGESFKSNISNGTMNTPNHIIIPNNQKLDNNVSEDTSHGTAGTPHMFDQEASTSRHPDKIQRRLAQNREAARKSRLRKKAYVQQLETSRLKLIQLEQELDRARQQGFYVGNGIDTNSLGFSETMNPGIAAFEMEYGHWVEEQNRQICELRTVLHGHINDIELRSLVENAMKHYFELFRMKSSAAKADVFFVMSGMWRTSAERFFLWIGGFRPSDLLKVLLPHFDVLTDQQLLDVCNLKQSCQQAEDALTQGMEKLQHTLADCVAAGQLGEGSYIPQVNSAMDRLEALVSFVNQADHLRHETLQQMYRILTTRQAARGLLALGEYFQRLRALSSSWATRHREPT", "assay": "qTFD (HiBiT luminescence microplate, relative to rnd); qTFD: 25 mM Tris-HCl pH 8.0, 100 mM KCl, 2 mM DTT, 1 mM EDTA, 0.1% BSA, 500 ng poly(dI-dC), 5% glycerol, 0.05% IGEPAL CA630, 1.5-50 nM protein, 1-3 h, room temperature; EMSA as in cited earlier work", "details": "protein: recombinant; tags: C-terminal HiBiT (VSGWRLFKKIS); pH9GW vector, Ni-NTA purified; chain copies: 2; label: none; blunt"}, "AtTGA1:HiBiT [2]": {"molecular_target": "T1, AtTGA1:HiBiT", "assay": "EMSA; 1.5-15 nM protein; reduced by unlabelled competitor; qTFD: 25 mM Tris-HCl pH 8.0, 100 mM KCl, 2 mM DTT, 1 mM EDTA, 0.1% BSA, 500 ng poly(dI-dC), 5% glycerol, 0.05% IGEPAL CA630, 1.5-50 nM protein, 1-3 h, room temperature; EMSA as in cited earlier work", "details": "protein: recombinant; tags: C-terminal HiBiT (VSGWRLFKKIS); pH9GW vector, Ni-NTA purified; chain copies: 2; label: Cy5 (primers); blunt"}, "AtTGA1:HiBiT [3]": {"molecular_target": "T1, AtTGA1:HiBiT", "assay": "qTFD (HiBiT luminescence microplate, relative to rnd); strong rQ; qTFD: 25 mM Tris-HCl pH 8.0, 100 mM KCl, 2 mM DTT, 1 mM EDTA, 0.1% BSA, 500 ng poly(dI-dC), 5% glycerol, 0.05% IGEPAL CA630, 1.5-50 nM protein, 1-3 h, room temperature; EMSA as in cited earlier work", "details": "protein: recombinant; tags: C-terminal HiBiT (VSGWRLFKKIS); pH9GW vector, Ni-NTA purified; chain copies: 2; label: none; blunt"}}, "data": [{"binder": "B1", "values": [{"measurement": "binding result", "setting": "AtTGA1:HiBiT [1]", "value": "binds"}]}, {"binder": "B2", "values": [{"measurement": "binding result", "setting": "AtTGA1:HiBiT [2]", "value": "binds"}]}, {"binder": "B3", "values": [{"measurement": "binding result", "setting": "AtTGA1:HiBiT [3]", "value": "binds"}]}]}
